# Data from IntAct's records for PubMed 16996049.
# B1: Partitioning defective protein 6 (Caenorhabditis elegans), Q9NAN2 (parent)
# chain: MSYNGSYHQNHHSTLQVKSKFDSEWRRFSIPMHSASGVSYDGFRSLVEKLHHLESVQFTLCYNSTGGDLLPITNDDNLRKSFESARPLLRLLIQRRGESWEEKYGYGTDSDKRWKGISSLMAQKPPKRSYSISNPEDFRQVSAIIDVDIVPEAHRRVRLCKHGQERPLGFYIRDGTSVRVTERGVVKVSGIFISRLVDGGLAESTGLLGVNDEVLEVNGIEVLGKTLDQVTDMMVANAHNLIITVKPANQRNTLSRGPSQQGTPNASEMSAATAAATGGIQRPMKMNGSSDGSYHPKQHDANDSDSGED
# Variants of: B1
# Conditions: with cdc42_caeel cdc-42, Q05062
# Sequence of cdc42_caeel cdc-42, Q05062 (Q05062 whole entry): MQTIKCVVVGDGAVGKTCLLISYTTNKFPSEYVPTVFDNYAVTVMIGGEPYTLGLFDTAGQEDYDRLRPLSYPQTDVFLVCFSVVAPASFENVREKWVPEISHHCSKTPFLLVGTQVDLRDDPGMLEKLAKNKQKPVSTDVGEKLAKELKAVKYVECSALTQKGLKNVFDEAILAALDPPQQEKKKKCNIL
row,effect of a mutation on the interaction,Variant
1,disrupting interaction,MSYNGSYHQNHHSTLQVKSKFDSEWRRFSIPMHSASGVSYDGFRSLVEKLHHLESVQFTLCYNSTGGDLLPITNDDNLRKSFESARPLLRLLIQRRGESWEEKYGYGTDSDKRWKGISSLMAQKPPKRSYSISNAEAAAQVSAIIDVDIVPEAHRRVRLCKHGQERPLGFYIRDGTSVRVTERGVVKVSGIFISRLVDGGLAESTGLLGVNDEVLEVNGIEVLGKTLDQVTDMMVANAHNLIITVKPANQRNTLSRGPSQQGTPNASEMSAATAAATGGIQRPMKMNGSSDGSYHPKQHDANDSDSGED [P135A;D137A;F138A;R139A]
2,disrupting interaction,MSYNGSYHQNHHSTLQVKSKFDSEWRRFSIPMHSASGVSYDGFRSLVEKLHHLESVQFTLCYNSTGGDLLPITNDDNLRKSFESARPLLRLLIQRRGESWEEKYGYGTDSDKRWKGISSLMAQKPPKRSYSISNPEDFRQAAAAADVDIVPEAHRRVRLCKHGQERPLGFYIRDGTSVRVTERGVVKVSGIFISRLVDGGLAESTGLLGVNDEVLEVNGIEVLGKTLDQVTDMMVANAHNLIITVKPANQRNTLSRGPSQQGTPNASEMSAATAAATGGIQRPMKMNGSSDGSYHPKQHDANDSDSGED [V141A;S142A;I144A;I145A]
